{"source": "patent US20110300561", "proteins": {"B1": {"name": "Staphylococcus aureus N-Succinyl-L,L-DAP Desuccinylase (DapE) (protein)", "chain": "MWKEKVQQYEDQIINDLKGLLAIESVRDDAKASEDAPVGPGPRKALDYMYEIAHRDGFTTHDVDHIAGRIEAGKGNDVLGILCHVDVVPAGDGWDSNPFEPVVTEDAIIARGTLDDKGPTIAAYYAIKILEDMNVDWKKRIHMIIGTDEESDWKCTDRYFKTEEMPTLGFAPDAEFPCIHGEKGITTFDLVQNKLTEDQDEPDYELITFKSGERYNMVPDHAEARVLVKENMTDVIQDFEYFLEQNHLQGDSTVDSGILVLTVEGKAVHGMDPSIGVNAGLYLLKFLASLNLDNNAQAFVAFSNRYLFNSDFGEKMGMKFHTDVMGDVTTNIGVITYDNENAGLFGINLRYPEGFEFEKAMDRFANEIQQYGFEVKLGKVQPPHYVDKNDPFVQKLVTAYRNQTNDMTEPYTIGGGTYARNLDKGVAFGAMFSDSEDLMHQKNEYITKKQLFNATSIYLEAIYSLCVEE"}}, "key": {"Lys-Phe": {"target": "T1, Lys-Phe", "T1 chain": "KF"}, "Lys-Leu": {"target": "T2, Lys-Leu", "T2 chain": "KL"}, "Arg-Ala": {"target": "T3, Arg-Ala", "T3 chain": "RA"}, "Ala-Ser": {"target": "T4, Ala-Ser", "T4 chain": "AS"}, "Arg-Leu": {"target": "T5, Arg-Leu", "T5 chain": "RL"}, "Ser-His": {"target": "T6, Ser-His", "T6 chain": "SH"}, "Asp-Lys": {"target": "T7, Asp-Lys", "T7 chain": "DK"}, "Phe-Val": {"target": "T8, Phe-Val", "T8 chain": "FV"}, "Arg-Val": {"target": "T9, Arg-Val", "T9 chain": "RV"}, "Arg-Ile": {"target": "T10, Arg-Ile", "T10 chain": "RI"}, "Gly-Lys": {"target": "T11, Gly-Lys", "T11 chain": "GK"}, "Gly-Ser": {"target": "T12, Gly-Ser", "T12 chain": "GS"}, "His-Leu": {"target": "T13, His-Leu", "T13 chain": "HL"}}}
{"protein": "B1", "values": [{"measurement": "Activity (S. aureus DapE Qualitative Dipeptidase Activity, TLC assay)", "setting": "Lys-Phe", "value": "++"}, {"measurement": "Activity (S. aureus DapE Qualitative Dipeptidase Activity, TLC assay)", "setting": "Lys-Leu", "value": "++"}, {"measurement": "Activity (S. aureus DapE Qualitative Dipeptidase Activity, TLC assay)", "setting": "Arg-Ala", "value": "+++"}, {"measurement": "Activity (S. aureus DapE Qualitative Dipeptidase Activity, TLC assay)", "setting": "Ala-Ser", "value": "+"}, {"measurement": "Activity (S. aureus DapE Qualitative Dipeptidase Activity, TLC assay)", "setting": "Arg-Leu", "value": "+++"}, {"measurement": "Activity (S. aureus DapE Qualitative Dipeptidase Activity, TLC assay)", "setting": "Ser-His", "value": "++"}, {"measurement": "Activity (S. aureus DapE Qualitative Dipeptidase Activity, TLC assay)", "setting": "Asp-Lys", "value": "+"}, {"measurement": "Activity (S. aureus DapE Qualitative Dipeptidase Activity, TLC assay)", "setting": "Phe-Val", "value": "+++"}, {"measurement": "Activity (S. aureus DapE Qualitative Dipeptidase Activity, TLC assay)", "setting": "Arg-Val", "value": "+++"}, {"measurement": "Activity (S. aureus DapE Qualitative Dipeptidase Activity, TLC assay)", "setting": "Arg-Ile", "value": "+++"}, {"measurement": "Activity (S. aureus DapE Qualitative Dipeptidase Activity, TLC assay)", "setting": "Gly-Lys", "value": "+"}, {"measurement": "Activity (S. aureus DapE Qualitative Dipeptidase Activity, TLC assay)", "setting": "Gly-Ser", "value": "+"}, {"measurement": "Activity (S. aureus DapE Qualitative Dipeptidase Activity, TLC assay)", "setting": "His-Leu", "value": "+"}]}
